The series concerns the molecule itself. Nature of the series: sedimentation velocity AUC, 150 mM NaCl, pH 6.0; self-association.

B1: mouse galactocerebrosidase (mGalC), recombinant (enzyme)
chain: YVLDDSDGLGREFDGIGAVSGGGATSRLLVNYPEPYRSEILDYLFKPNFGASLHILKVEIGGDGQTTDGTEPSHMHYELDENYFRGYEWWLMKEAKKRNPDIILMGLPWSFPGWLGKGFSWPYVNLQLTAYYVVRWILGAKHYHDLDIDYIGIWNERPFDANYIKELRKMLDYQGLQRVRIIASDNLWEPISSSLLLDQELWKVVDVIGAHYPGTYTVWNAKMSGKKLWSSEDFSTINSNVGAGCWSRILNQNYINGNMTSTIAWNLVASYYEELPYGRSGLMTAQEPWSGHYVVASPIWVSAHTTQFTQPGWYYLKTVGHLEKGGSYVALTDGLGNLTIIIETMSHQHSMCIRPYLPYYNVSHQLATFTLKGSLREIQELQVWYTKLGTPQQRLHFKQLDTLWLLDGSGSFTLELEEDEIFTLTTLTTGRKGSYPPPPSSKPFPTNYKDDFNVEYPLFSEAPNFADQTGVFEYYMNNEDREHRFTLRQVLNQRPITWAADASSTISVIGDHHWTNMTVQCDVYIETPRSGGVFIAGRVNKGGILIRSATGVFFWIFANGSYRVTADLGGWITYASGHADVTAKRWYTLTLGIKGYFAFGMLNGTILWKNVRVKYPGHGWAAIGTHTFEFAQFDNFRVEAAR
notes: also called rmGALC; rmGalC
For the protein B1, the binding result was “binds”.

These data come from patent US20130295071A1 (SHIRE HUMAN GENETIC THERAPIES, published 2013).
